Data on seven proteins can be found in paper PMC6310800, “Exploiting correlated molecular-dynamics networks to counteract enzyme activity–stability trade-off” (Proceedings of the National Academy of Sciences of the …, 2018).

The labels stand for the following.
B1: transketolase (TK) (Escherichia coli K-12; A282P/D469T/G506A/H192P/I365L/R520Q/S385Y) (protein)
chain: MSSRKELANAIRALSMDAVQKAKSGHPGAPMGMADIAEVLWRDFLKHNPQNPSWADRDRFVLSNGHGSMLIYSLLHLTGYDLPMEELKNFRQLHSKTPGHPEVGYTAGVETTTGPLGQGIANAVGMAIAEKTLAAQFNRPGHDIVDHYTYAFMGDGCMMEGISHEVCSLAGTLKLGKLIAFYDDNGISIDGPVEGWFTDDTAMRFEAYGWHVIRDIDGHDAASIKRAVEEARAVTDKPSLLMCKTIIGFGSPNKAGTHDSHGAPLGDAEIALTREQLGWKYPPFEIPSEIYAQWDAKEAGQAKESAWNEKFAAYAKAYPQEAAEFTRRMKGEMPSDFDAKAKEFIAKLQANPAKIASRKASQNALEAFGPLLPEFLGGSADLAPYNLTLWSGSKAINEDAAGNYIHYGVREFGMTAIANGISLHGGFLPYTSTFLMFVEYARNAVRMAALMKQRQVMVYTHDSIGLGETGPTHQPVEQVASLRVTPNMSTWRPCDQVESAVAWKYAVERQDGPTALILSQQNLAQQERTEEQLANIARGGYVLKDCAGQPELIFIATGSEVELAVAAYEKLTAEGVKARVVSMPSTDAFDKQDAAYRESVLPKAVTARVAVEAGIADYWYKYVGLNGAIVGMTTFGESAPAELLFEEFGFTVDNVVAKAKELL
notes: recombinant from plasmid pQR791, purified; homodimer
B2: transketolase (TK) (Escherichia coli K-12; D469T/H192P/R520Q/S385Y) (protein)
chain: B1 chain with P282A, L365I, A506G
notes: as for B1
B3: transketolase (TK) (Escherichia coli K-12; A282P/D469T/H192P/I365L/R520Q/S385Y) (protein)
chain: B1 chain with A506G
notes: as for B1
B4: transketolase (TK) (Escherichia coli K-12; A282P/D469T/H192P/R520Q/S385Y) (protein)
chain: B1 chain with L365I, A506G
notes: as for B1
B5: transketolase (TK) (Escherichia coli K-12; A282P/D469T/G506A/H192P/R520Q/S385Y) (protein)
chain: B1 chain with L365I
notes: as for B1
B6: transketolase (TK) (Escherichia coli K-12; A282P/D469T/R520Q/S385Y) (protein)
chain: B1 chain with P192H, L365I, A506G
notes: as for B1
B7: transketolase (TK) (Escherichia coli K-12; D469T/R520Q/S385Y) (protein)
chain: B1 chain with P192H, P282A, L365I, A506G
notes: as for B1

Positions count from the first letter of the chain named. Numbers in names are those of the source.

Substrate in the data set: O=Cc1cccc(C(=O)O)c1
Description: initial rates by HPLC, Michaelis-Menten fit. It counts as biochemical, Escherichia coli. Particulars: 50 mM Li-hydroxypyruvate, 50 mM Tris-HCl pH 7.0, 2.4 mM ThDP, 9 mM MgCl2, 22 °C. The text has this:
initial rates by HPLC, Michaelis-Menten fit on transketolase (TK)
With B1, the Km is listed as 2.3 (0.3) mM, the kcat came out at 3.8 s⁻¹ and the kcat/Km came out at 1650 M⁻¹ s⁻¹.
For B2 the same measures were 2.2 (0.4) mM, 3.5 s⁻¹ and 1590 M⁻¹ s⁻¹.
The corresponding values for B3 are 1.3 (0.4) mM, 2.1 s⁻¹ and 1620 M⁻¹ s⁻¹.
For B4 the same measures were 1.3 (0.2) mM, 2.9 s⁻¹ and 2230 M⁻¹ s⁻¹.
Take B5: the Km is listed as 2.7 (0.4) mM, the kcat is 3.9 s⁻¹ and the kcat/Km was 1440 M⁻¹ s⁻¹.
For B6 the same measures were 2.1 (0.2) mM, 3.2 s⁻¹ and 1520 M⁻¹ s⁻¹.
For B7, the Km is reported as 2.3 (0.3) mM, the turnover number (kcat) is 2.8 s⁻¹ and the kcat/Km is 1220 M⁻¹ s⁻¹.
